Here are results for five sequences from patent US10995116B2, “Peptide-induced NK cell activation” (University of Southampton, priority 2014, dated 2021).

Where two headings read alike, the source gives them in different places.

Assay [1] deals with T1, KIR2DS2 (Homo sapiens, UniProt P43631). The experiment in a line: pVav1/Vav1 Western blot, KIR2DS2-transfected NK cell line plus peptide-loaded HLA-C*0304:ICP47:721.221 cells. Format: cell-based. Set-up: expressed in transfected cells; host or cells: NKL cell line transfected with KIR2DS2; target cells L721.221-HLA-C*0304-ICP47. Particulars: peptide 20 μM, 5 minutes. The protocol:
FIG. 7 1×10^6 L721.221-HLA-C*0304-ICP47 cells were incubated overnight at 26° C. with indicated peptides at a concentration of 20 μM. The cells were then incubated with the NKL cell line transfected with KIR2DS2 or transfected with KIR2DL2 for 5 minutes. The cells were lysed in 1% NP-40 and then analysed by Western blotting using antibodies to pVav1 and then following stripping of the membrane to Vav1. Shown are Western blots around the 98 kDa region, and below them the corresponding densitometries for 2 independent experiments.
With reference to FIG. 7, 1×10^6 HLA-C*0304:ICP47:721.221 cells were incubated overnight at 26° C. with indicated peptides at a concentration of 20 μM. The cells were then incubated with the NK cell line transfected with KIR2DS2 for 5 minutes. The cells were lysed in 1% NP-40 and then analysed by Western blotting using antibodies to pVav1 and then following stripping of the membrane to Vav1. Shown is a Western blots around the 98kDa region, and below them the corresponding densitometries for 3 independent experiments.
Target sequence in this assay (P43631 22-304): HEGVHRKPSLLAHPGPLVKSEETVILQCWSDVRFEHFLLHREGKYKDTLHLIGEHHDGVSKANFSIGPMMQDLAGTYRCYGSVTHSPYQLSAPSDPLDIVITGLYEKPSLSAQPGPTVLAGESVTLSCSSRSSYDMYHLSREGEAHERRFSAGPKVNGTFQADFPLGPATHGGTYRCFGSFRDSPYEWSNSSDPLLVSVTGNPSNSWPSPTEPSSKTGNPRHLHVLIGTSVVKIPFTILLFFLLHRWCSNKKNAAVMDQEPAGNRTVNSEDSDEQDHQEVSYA

Assay [2] addresses T2, HLA-Cw*0102 (Homo sapiens, UniProt P10321, A176E/A330V/A35S/A97T/C350S/D114A/D33F/L171W/L180R/L218V/M285V/M309V/M331V/P208H/Q277E/Q291P/R121W/R243W/R30K/S123C/S140Y/S297R/T329A/T363A/V272M/V319A). The assay can be described thus: Peptide binding to HLA-Cw*0102: cell surface MHC class I staining of L721.174 cells by flow cytometry. Format: cell-based. Conditions: increasing peptide concentrations, overnight at 26° C. As for the experimental part:
The HLA-Cw*0102-positive cell line L721.174 was incubated with increasing concentrations of the LNPSVAATL (SEQ ID NO: 1) peptide or a control peptide VAPWNSLSL (SEQ ID NO: 48). Cells were stained for cell surface of MHC class I and analysed by flow cytometry. The mean fluorescence intensity of cell surface MHC Class I was plotted against the peptide concentration.
With reference to FIG. 1, the HLA-Cw*0102-positive cell line L721.174 was incubated with increasing concentrations of the LNPSVAATL (SEQ ID NO: 1) peptide or a control peptide VAPWNSLSL (SEQ ID NO: 48) (known to bind HLA-Cw*0102) overnight at 26° C. 3×10^5 cells were used per condition. Following washing in PBS the cells were stained for cell surface of MHC class I and analysed by flow cytometry. The mean fluorescence intensity of cell surface MHC Class I was plotted against the peptide concentration.
A general note: In flow cytometry, cells or beads pass a laser one at a time.

For a further assay, the target named is HLA-C*0102 (Homo sapiens, UniProt P10321, A176E/A330V/A35S/A97T/C350S/D114A/D33F/L171W/L180R/L218V/M285V/M309V/M331V/P208H/Q277E/Q291P/R121W/R243W/R30K/S123C/S140Y/S297R/T329A/T363A/V272M/V319A). The experiment in a line: HPLC of HLA-C binding peptides eluted from 721.221 cells expressing HLA-C*0102:T2A:E19/3K:LNPSVAATL
Particulars: peak in the eluate at the retention time of the control peptide. As for the experimental part: FIG. 8 The MHC class I-negative 721.221 cell line was transfected with a construct expressing HLA-C*0102:T2A:E19/3K:LNPSVAATL (SEQ ID NO: 1). The cells were washed and then the HLA-C binding peptides eluted using 10% acetic acid. The eluate was analysed by HPLC using a C18 column and a 4-60% acetonitrile gradient. The resulting profile was compared to the profile of the LNPSVAATL (SEQ ID NO: 1) peptide alone. The peptide elution peak is indicated with an arrow.
The cell line 721.221 expressing HLA-C*0102:T2A:E19/3K:LNPSVAATL. Following elution of the HLA-C binding peptides using 10% acetic acid the peptides were analysed by HPLC using a C18 column and an acetonitrile gradient.

Assay [3] deals with NK cells expressing KIR2DS2. The assay can be described thus: pVav1/Vav1 Western blot, NK cell line transfected with KIR2DS2 or KIR2DL2 plus peptide-loaded L721.174 cells. The format is cell-based. Particulars: peptide 20 μM, 5 minutes. As for the experimental part: (§1) FIG. 6 LNPSVAATL (SEQ ID NO: 1) activates NK cells expressing KIR2DS2. A. L721.174 cells were incubated with indicated peptides. The cells were then incubated with the NK cell line transfected with KIR2DS2. The cells were lysed and the KIR2DS2 was then immunoprecipitated from the mixture using the GL183 antibody coupled to protein-G beads. The immune precipitate was analysed by Western blotting using a phosphotyrosine antibody. The membrane was then stripped and reprobed with an antibody to DAP12 the molecule that transduces a positive signal from KIR2DS2. Shown are the regions on the blots at the level of DAP12 (12-15kDa). B. L721.174 cells were incubated with indicated peptides. The cells were then incubated with the NK cell line transfected with KIR2DS2 or transfected with KIR2DL2. The cells were lysed in 1% NP-40 and then analysed by Western blotting using antibodies to pVav1 and then following stripping of the membrane to Vav1. […]
(§2) With reference to FIG. 6A, 1×10^6 L721.174 cells were incubated overnight at 26° C. with indicated peptides at a concentration of 20 μM. […] The immune precipitate was analysed by Western blotting using a phosphotyrosine antibody. […] The cells were lysed in 1% NP-40 and then analysed by Western blotting using antibodies to pVav1 and then following stripping of the membrane to Vav1. […]
(In general: In western blotting, separated proteins are transferred to a membrane and probed.)

The target in assay [4] is T1, KIR2DS2. The assay can be described thus: KIR2DS2-PE tetramer staining of peptide-loaded L721.174 cells by flow cytometry. Format: binding. Set-up: made in house. Particulars: peptide 200 μM overnight at 26° C. The protocol:
(SEQ ID NO: 1) peptide. A. The KIR2DS2 protein was expressed with a biotinylation C-terminal tag. Following biotinylation with the BirA enzyme, the KIR2DS2 protein was incubated with streptavidin-phycoerythrin to form fluorescent KIR2DS2-tetramers (KIR2DS2-PE). L721.174 cells were then incubated with indicated peptides. Cells were then stained with KIR2DS2-PE and analysed by flow cytometry. Shown are histogram plots. The bold numbers represent the mean fluorescent staining intensity of the KIR2DS2-PE staining of the cells in the presence of peptide and the non-bold numbers the staining in the absence of peptide. B. Represents the mean and standard error fluorescent intensities of the experiment in “A” following replicate experiments.
A. L721.174 cells were incubated with indicated peptides. Cells were then stained with KIR2DS2-PE (see FIG. 4) and analysed by flow cytometry. Shown are histogram plots. […]
With reference to FIG. 4A, the KIR2DS2 protein was expressed as a recombinant protein with a biotinylation C-terminal tag. […] Cells were then stained with KIR2DS2-PE and analysed by flow cytometry. […]
With reference to FIG. 5A, 3×10^5 L721.174 cells were incubated overnight at 26° C. with indicated peptides at a concentration of 200 μM. Cells were then stained with KIR2DS2-PE (see FIG. 4) and analysed by flow cytometry. […]
Target sequence in this assay (P43631 22-245 limits assumed): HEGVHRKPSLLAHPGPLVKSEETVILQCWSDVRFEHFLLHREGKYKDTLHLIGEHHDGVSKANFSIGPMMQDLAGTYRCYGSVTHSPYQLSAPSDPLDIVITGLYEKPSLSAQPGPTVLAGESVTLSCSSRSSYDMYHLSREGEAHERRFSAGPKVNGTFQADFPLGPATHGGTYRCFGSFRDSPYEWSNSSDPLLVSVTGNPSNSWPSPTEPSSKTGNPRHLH

The subject of the next assay is L721.174 cells. The experiment in a line: Cytotoxicity of NK cell clones against peptide-loaded L721.174 cells (Live/Dead fixable far-red stain). The format is cell-based. Particulars: KIR2DS2-positive NK cell clones 4, 6, 9 only; not KIR2DS2-negative clone 27. The protocol:
L721.174 cells were incubated in the presence or absence of the peptides VAPWNSFAL (SEQ ID NO: 49) and the LNPSVAATL (SEQ ID NO: 1). The cells were then labeled with the cell tracker orange dye, and then cultured with KIR2DS2-positive NK cell clones (clones 4,6,9) or a KIR2DS2-negative NK cell clone (clone 27). Cytotoxicity was then determined using Live/Dead® fixable far-red stain.
With reference to FIG. 3, 3×10^5 L721.174 cells were incubated at 26° C. overnight in the presence or absence of the peptides VAPWNSFAL (SEQ ID NO: 49) and the LNPSVAATL (SEQ ID NO: 1). The cells were then labeled with the cell tracker orange dye, and then cultured for four hours with KIR2DS2-positive NK cell clones (clones 4,6,9) or a KIR2DS2-negative NK cell clone (clone 27). Cytotoxicity was then determined using Live/Dead® fixable far-red stain.

The next assay has as its system DAP12. The assay can be described thus: DAP12 phosphorylation: KIR2DS2 immunoprecipitation and phosphotyrosine Western blot, NK cell line transfected with KIR2DS2 plus peptide-loaded L721.174 cells. Particulars: peptide 20 μM, 5 minutes. The format is cell-based. As for the experimental part:
as §1, §2

The subject of assay [5] is NK cells from KIR2DS2-positive or KIR2DS2-negative donor. The assay can be described thus: CD107a (LAMP) degranulation of CH-L antibody positive NK cells cultured with peptide-loaded L721.174 cells. Format: cell-based. The protocol: A. cells were incubated in the presence or absence of peptides, and then cultured with NK cells from either a KIR2DS2-positive or KIR2DS2-negative donor. The level of CD107a (LAMP) expression was measured on NK cells positive for the CH-L antibody. This antibody binds to KIR2DS2, KIR2DL2 and KIR2DL3. B. Summary data from 5 KIR2DS2-positive and 6 KIR2DS2-negative donors tested as per panel A of FIG. 2. To compare the different donors the data are normalized to 100% for the no peptide condition.
With reference to FIG. 2A, 3×10^5 L721.174 cells were incubated at 26° C. overnight in the presence or absence of peptides, and then cultured for four hours with NK cells from either a KIR2DS2-positive or KIR2DS2-negative donor. The level of CD107a (LAMP) expression was measured on NK cells positive for the CH-L antibody. This antibody binds to KIR2DS2, KIR2DL2 and KIR2DL3. […] With reference to FIG. 2B, summary data from 5 KIR2DS2-positive and 6 KIR2DS2-negative donors were tested as per panel A of FIG. 2. To compare the different donors the data are normalized to 100% for the no peptide condition.

Assay [6] has as its target T2, HLA-Cw*0102. Particulars: control peptide, stated as known; cited from earlier work.

In the case of GAVPDLATL (listed as Homo sapiens), in the assay with KIR2DS2 [1], the “activation of KIR2DS2 (pVav1)” value is on record as “Activated”.

In the case of GAVPDLAWL (listed as Homo sapiens), in the assay with KIR2DS2 [1], the “activation of KIR2DS2 (pVav1)” value is listed as “Activated”.

With LNPSVAATL (listed as Homo sapiens), the “binding to HLA-Cw*0102” value with HLA-Cw*0102 [2] was “Binds”. For the same sequence, the “endogenous processing and presentation from construct” value with HLA-C*0102 is “endogenously processed and presented”. Further, the “activation of NK cells expressing KIR2DS2” value in assay [3] was “Activates”. Besides, in the assay with KIR2DS2 [4], the “KIR2DS2 binding to HLA-C*0102 and peptide (KIR2DS2-PE staining)” value is given as “Binds”. In addition, in the assay on L721.174 cells, the “killing of L721.174 cells as compared to no peptide or the VAPWNSFAL peptide” value was “killed the L721.174 cell line to greater extent”. In the assay with DAP12, the “phosphorylation of DAP12” value was “induces phosphorylation of DAP12”. Further, in assay [5] (NK cells from KIR2DS2-positive donors), the “level of CD107a degranulation as compared to no peptide” value is “higher levels of degranulation”. Besides, the “level of CD107a degranulation as compared to the VAPWNSFAL peptide alone” value in assay [5] (NK cells from KIR2DS2-positive donors, LNPSVAATL in combination with VAPWNSFAL) is on record as “higher levels of degranulation”.

For the sequence “VAPWNSFAL (listed as Homo sapiens) [reference compound]”, in [5] (NK cells from both donors (KIR2DS2-positive and KIR2DS2-negative)), the “level of CD107a degranulation as compared to no peptide” value is “lower levels of degranulation”.

As for VAPWNSLSL (listed as Homo sapiens), the “binding to HLA-Cw*0102” value with HLA-Cw*0102 [6] is recorded as “known to bind”.
